Experimental data: the supplement of paper PMC10065799, “High-throughput profiling of sequence recognition by tyrosine kinases and SH2 domains using bacterial peptide display” (eLife, 2023)

What was measured:
[1] = tested on: AncSZ; assay: phosphorylation enrichment, bacterial display (enrichment ratio); higher = better substrate or ligand; peptides without Tyr show the background
[2] = biological target: EPHB1 (UniProt P54762); assay: as above
[3] = biological target: EPHB2 (UniProt P29323); assay: as above
Sequence of EPHB2 (P29323 whole entry, looked up): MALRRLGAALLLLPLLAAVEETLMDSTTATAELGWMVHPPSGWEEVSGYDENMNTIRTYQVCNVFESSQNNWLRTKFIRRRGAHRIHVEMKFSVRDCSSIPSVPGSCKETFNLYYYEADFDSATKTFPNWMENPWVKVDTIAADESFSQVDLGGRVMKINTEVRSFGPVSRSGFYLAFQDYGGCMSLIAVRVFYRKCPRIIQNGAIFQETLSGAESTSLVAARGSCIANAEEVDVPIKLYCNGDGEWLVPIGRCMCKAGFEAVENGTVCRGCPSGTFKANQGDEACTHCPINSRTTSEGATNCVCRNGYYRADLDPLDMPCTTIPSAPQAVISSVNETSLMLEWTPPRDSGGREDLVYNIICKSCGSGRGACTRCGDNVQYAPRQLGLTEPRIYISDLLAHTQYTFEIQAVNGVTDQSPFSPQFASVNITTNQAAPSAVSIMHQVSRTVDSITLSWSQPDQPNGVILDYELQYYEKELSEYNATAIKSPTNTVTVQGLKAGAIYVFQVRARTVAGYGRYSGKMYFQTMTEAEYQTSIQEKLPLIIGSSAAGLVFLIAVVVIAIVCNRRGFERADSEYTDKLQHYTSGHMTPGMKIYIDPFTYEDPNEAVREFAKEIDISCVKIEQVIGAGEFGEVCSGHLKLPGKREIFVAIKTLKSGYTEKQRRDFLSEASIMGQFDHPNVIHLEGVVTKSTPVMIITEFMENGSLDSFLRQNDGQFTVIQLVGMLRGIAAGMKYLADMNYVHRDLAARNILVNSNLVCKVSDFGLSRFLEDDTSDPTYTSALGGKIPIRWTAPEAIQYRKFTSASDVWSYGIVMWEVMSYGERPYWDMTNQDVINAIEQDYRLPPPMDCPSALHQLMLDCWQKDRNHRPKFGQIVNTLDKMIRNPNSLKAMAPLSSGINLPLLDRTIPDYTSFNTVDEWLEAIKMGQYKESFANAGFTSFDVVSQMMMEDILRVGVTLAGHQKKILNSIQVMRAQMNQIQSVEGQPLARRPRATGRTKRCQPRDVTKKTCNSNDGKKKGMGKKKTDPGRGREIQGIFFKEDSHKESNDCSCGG

[4] = biological target: FGFR1 (UniProt P11362); assay: as above
[5] = biological target: FGFR3 (UniProt P22607); assay: as above
[6] = tested on: Fer (mouse); assay: as above
[7] = biological target: Fes (UniProt P07332); assay: as above
[8] = biological target: Fyn (UniProt P06241); assay: as above
Sequence of Fyn (P06241 whole entry, looked up): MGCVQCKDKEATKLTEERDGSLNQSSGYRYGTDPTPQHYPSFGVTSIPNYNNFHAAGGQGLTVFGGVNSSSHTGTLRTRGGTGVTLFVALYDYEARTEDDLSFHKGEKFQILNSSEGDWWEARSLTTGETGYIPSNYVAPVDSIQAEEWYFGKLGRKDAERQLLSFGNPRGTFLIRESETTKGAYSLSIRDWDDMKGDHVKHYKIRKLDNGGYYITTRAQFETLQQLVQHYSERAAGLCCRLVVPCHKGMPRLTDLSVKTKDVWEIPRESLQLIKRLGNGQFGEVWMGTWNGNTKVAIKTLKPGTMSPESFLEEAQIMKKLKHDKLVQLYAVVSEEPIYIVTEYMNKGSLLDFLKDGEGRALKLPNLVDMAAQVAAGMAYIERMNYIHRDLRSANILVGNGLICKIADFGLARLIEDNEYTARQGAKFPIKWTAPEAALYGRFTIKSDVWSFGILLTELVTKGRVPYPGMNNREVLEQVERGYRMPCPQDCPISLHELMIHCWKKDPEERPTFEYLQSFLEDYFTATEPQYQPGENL

[9] = biological target: Hck (UniProt P08631); assay: as above
Sequence of Hck (P08631 whole entry, looked up): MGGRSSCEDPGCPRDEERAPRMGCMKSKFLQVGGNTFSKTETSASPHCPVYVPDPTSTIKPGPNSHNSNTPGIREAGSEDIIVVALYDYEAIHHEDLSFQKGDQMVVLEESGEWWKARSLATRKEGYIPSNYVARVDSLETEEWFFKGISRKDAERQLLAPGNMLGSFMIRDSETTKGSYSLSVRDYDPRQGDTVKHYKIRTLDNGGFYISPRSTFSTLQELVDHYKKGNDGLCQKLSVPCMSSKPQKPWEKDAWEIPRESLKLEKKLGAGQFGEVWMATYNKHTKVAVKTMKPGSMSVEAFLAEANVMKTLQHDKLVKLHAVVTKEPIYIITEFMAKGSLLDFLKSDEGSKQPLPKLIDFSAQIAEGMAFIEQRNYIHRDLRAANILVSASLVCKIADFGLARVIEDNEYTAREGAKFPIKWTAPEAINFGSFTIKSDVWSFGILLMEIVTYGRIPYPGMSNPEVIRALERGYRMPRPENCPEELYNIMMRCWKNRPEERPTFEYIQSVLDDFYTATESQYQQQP

[10] = biological target: Jak2 (UniProt O60674); assay: as above
Sequence of Jak2 (O60674 whole entry, looked up): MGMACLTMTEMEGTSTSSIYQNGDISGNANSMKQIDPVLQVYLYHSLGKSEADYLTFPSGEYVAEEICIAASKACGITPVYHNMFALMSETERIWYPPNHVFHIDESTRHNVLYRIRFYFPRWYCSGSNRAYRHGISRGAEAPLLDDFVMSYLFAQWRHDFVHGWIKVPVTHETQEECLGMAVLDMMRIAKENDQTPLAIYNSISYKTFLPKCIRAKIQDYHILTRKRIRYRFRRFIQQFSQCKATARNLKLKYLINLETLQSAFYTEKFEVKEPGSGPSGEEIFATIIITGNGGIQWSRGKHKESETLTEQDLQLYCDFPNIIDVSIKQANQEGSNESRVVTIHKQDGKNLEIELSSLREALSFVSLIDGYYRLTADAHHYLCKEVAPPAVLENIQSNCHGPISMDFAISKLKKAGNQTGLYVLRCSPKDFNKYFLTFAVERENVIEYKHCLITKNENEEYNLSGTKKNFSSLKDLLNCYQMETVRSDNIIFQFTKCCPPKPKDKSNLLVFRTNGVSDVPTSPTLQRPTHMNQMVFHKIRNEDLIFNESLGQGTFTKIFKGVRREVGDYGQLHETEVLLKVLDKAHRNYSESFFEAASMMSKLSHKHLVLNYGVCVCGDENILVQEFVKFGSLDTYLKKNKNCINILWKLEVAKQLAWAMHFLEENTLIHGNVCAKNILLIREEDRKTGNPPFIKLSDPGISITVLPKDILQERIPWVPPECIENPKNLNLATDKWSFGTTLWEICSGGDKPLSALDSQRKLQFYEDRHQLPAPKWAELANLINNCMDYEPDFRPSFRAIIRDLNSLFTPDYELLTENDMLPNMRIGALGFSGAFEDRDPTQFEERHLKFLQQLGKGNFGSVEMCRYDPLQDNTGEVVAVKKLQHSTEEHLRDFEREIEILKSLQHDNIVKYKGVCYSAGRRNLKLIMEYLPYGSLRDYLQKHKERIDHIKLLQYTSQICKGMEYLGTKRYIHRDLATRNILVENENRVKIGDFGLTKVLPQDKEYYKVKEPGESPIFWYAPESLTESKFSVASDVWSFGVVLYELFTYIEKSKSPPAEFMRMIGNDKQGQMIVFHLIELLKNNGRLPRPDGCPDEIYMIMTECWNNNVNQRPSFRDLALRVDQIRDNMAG

[11] = biological target: MERTK (UniProt Q12866); assay: as above
[12] = tested on: c-Abl (mouse); assay: as above
[13] = tested on: c-Src; assay: as above
[14] = biological target: Grb2 SH2 (UniProt P62993); assay: SH2 binding enrichment of the phosphorylated peptide, bacterial display (enrichment ratio); higher = better substrate or ligand; peptides without Tyr show the background
Sequence of Grb2 SH2 (P62993 whole entry, looked up): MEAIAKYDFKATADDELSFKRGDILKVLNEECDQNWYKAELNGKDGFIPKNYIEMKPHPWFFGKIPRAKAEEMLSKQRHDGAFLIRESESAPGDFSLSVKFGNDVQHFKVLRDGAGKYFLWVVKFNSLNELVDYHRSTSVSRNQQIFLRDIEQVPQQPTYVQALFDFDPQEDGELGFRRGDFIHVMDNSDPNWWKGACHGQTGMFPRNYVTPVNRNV

[15] = biological target: SHP2-C SH2; assay: as above
[16] = biological target: c-Src SH2; assay: as above
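For SH2 binding enrichment of the phosphorylated peptide, bacterial display in this document: peptide library displayed on the E. coli surface as eCPX fusions, selected cells deep-sequenced, score is each peptide's frequency after selection divided by its frequency in the input.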
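For phosphorylation enrichment, bacterial display in this document: 11-residue human phosphosite peptides and single-mutation variants displayed on the E. coli surface, counted by deep sequencing, each peptide's frequency after selection divided by its frequency in the unselected input library; frequency after pTyr selection over input frequency; kinase dosed for 20-30% of maximal phosphorylation in three min.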

Sequence of EPHB1 (P54762 whole entry, looked up): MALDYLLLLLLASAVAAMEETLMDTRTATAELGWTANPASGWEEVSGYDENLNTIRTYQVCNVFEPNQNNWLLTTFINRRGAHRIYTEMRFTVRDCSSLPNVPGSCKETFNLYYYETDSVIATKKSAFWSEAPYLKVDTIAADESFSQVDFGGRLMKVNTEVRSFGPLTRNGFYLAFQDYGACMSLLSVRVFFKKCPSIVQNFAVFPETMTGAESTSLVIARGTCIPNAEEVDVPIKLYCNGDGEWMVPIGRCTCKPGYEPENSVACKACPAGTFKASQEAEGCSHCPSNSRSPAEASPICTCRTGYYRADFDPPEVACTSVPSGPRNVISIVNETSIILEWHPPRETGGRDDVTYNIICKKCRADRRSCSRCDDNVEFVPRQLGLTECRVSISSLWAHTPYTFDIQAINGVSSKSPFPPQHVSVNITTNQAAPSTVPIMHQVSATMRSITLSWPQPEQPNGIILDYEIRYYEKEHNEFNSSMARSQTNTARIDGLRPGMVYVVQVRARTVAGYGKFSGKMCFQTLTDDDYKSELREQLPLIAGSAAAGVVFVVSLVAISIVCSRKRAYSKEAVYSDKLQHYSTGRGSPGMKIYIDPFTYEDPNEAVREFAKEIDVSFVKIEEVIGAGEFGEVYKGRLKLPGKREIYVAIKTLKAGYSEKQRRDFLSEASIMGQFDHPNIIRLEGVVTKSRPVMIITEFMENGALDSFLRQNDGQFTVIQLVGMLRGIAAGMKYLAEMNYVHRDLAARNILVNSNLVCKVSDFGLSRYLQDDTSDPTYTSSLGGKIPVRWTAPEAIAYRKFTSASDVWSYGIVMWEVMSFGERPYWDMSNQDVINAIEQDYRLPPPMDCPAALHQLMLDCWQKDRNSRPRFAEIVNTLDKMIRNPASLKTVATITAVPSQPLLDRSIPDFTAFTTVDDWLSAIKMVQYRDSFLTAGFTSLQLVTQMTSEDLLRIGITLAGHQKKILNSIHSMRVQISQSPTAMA

Sequence	phosphorylation enrichment [1]	phosphorylation enrichment [2]	phosphorylation enrichment [3]	phosphorylation enrichment [4]	phosphorylation enrichment [5]	phosphorylation enrichment [6]	phosphorylation enrichment [7]	phosphorylation enrichment [8]	phosphorylation enrichment [9]	phosphorylation enrichment [10]	phosphorylation enrichment [11]	phosphorylation enrichment [12]	phosphorylation enrichment [13]	SH2 binding enrichment [14]	SH2 binding enrichment [15]	SH2 binding enrichment [16]
LTDRGYSFVTT [ACTA1_Y200_E197D]	1.38	0.852	1.04	0.772	0.756	0.653	1.23	0.8	0.677	1.88	0.846	1.17	0.6	0.988	6.52	10
LTERGYSFTTK [ACTG1_Y198_T203K]	3	1.8	2.03	1.96	1.54	2.1	2.1	1.66	0.911	1.65	1.79	0.995	0.982	0.679	0.653	0.454
LTNDRYVATLT [IL6ST_Y396_L397V]	0.683	0.607	0.72	0.619	0.82	0.408	0.791	0.576	0.394	0.808	0.622	0.434	0.69	0.764	0.527	0.537
LTQRTYMSENA [GPAA1_Y49]	0.636	0.364	0.528	0.452	0.485	0.429	0.613	0.376	0.455	0.65	0.47	0.488	0.429	0.783	0.801	0.422
LTYHMYADPNI [SOS1_Y618_F623I]	2.56	5.79	6.28	4.27	3.13	1.23	1.59	6.07	4.78	2.03	3.73	3.47	9.95	0.71	1.41	8.46
LVKDPYVMFPQ [PLEKHG2_Y489_P484L]	1.45	0.91	0.608	7.45	3.42	1.12	1.93	4.32	2.48	1.79	0.997	0.943	3.86	0.778	0.459	1.98
LVPAWYIGFLC [KCNQ2_Y237_T234P]	1.25	0.599	0.625	0.502	0.812	0.56	1.28	0.487	0.516	1.1	0.361	0.804	0.51	0.968	0.844	0.543
LVPPRYARSEI [PKP2_Y194]	1.26	0.597	0.72	0.74	0.941	0.697	1.34	0.631	0.783	0.495	0.528	0.345	0.394	0.771	0.787	0.538
LVTCSYLLGNS [LMNA_Y646_R644C]	2.16	1.14	1.56	0.76	1.72	0.959	3.29	0.756	0.803	2.94	0.99	1.95	1.3	0.732	0.765	0.37
LWPIWYSCHRP [MRGPRX1_Y130_R131S]	1.82	0.83	0.694	0.643	1.04	0.881	1.97	0.519	0.601	1.27	0.687	0.943	0.601	0.924	0.665	0.535
LYEDRYLLGPS [ASS1_Y87_T91P]	1.2	3.52	1.4	1.2	1.16	5.42	1.67	2.3	4.13	0.812	0.899	0.683	1.5	0.69	0.662	0.626
LYSNAYLSDLA [ALDH1A1_Y119_N121S]	1.68	2.99	1.45	1.14	1.23	7.25	1.01	3.58	3.5	0.945	8.43	0.618	1.96	0.94	0.782	1.11
MALDRYVAICK [OR2B11_Y127]	0.762	0.581	0.575	0.508	0.604	0.499	0.838	0.464	0.51	0.665	0.411	0.863	0.454	0.856	0.97	1.35
MCDSHYLESRS [CLK1_Y56]	0.578	0.495	0.535	0.509	0.718	0.473	0.81	0.449	0.35	0.618	0.426	0.493	0.424	1.04	0.719	0.675
MDQAEYQAKIR [DHX58_Y518]	0.616	0.299	0.476	0.441	0.412	0.433	0.708	0.477	0.424	0.659	0.446	0.729	0.43	0.754	1.04	0.612
MENFIYESMRF [CYP19A1_Y361_YF]	1.3	4.14	2.63	0.551	0.577	14.1	5.1	8.61	7.67	0.626	3.74	2.71	6.6	0.772	0.677	0.562
